Read-outs that look alike come from different tables or passages of the source.

Series [1] deals with the molecule itself. Put plainly: SDS-resistant complexes on SDS-polyacrylamide gel, coomassie staining.
Series [2] deals with the molecule itself.

B1: MBP-Agno (17-71) (domain or fragment)
chain: TWSGTKKRAQRILIFLLEFLLDFCTGEDSVDGKKRQRHSGLTEQTYSALPEPKAT
Turning to B1, the binding result in series [1] is given as “binds”.

B2: MBP-SV40 Agno (full length SV40 agnoprotein fused to MBP) (natural protein)
chain: MVLRRLSRQASVKVRRSWTESKKTAQRLFVFVLELLLQFCEGEDTVDGKRKKPERLTEKPES
As for B2, the binding result in series [2] was “binds”.
